This note sets out measurements from publication PMC8299502.

One data set has as its target T1, RbFox(RRM) (UniProt Q9NWB1 109-208).
T1 sequence: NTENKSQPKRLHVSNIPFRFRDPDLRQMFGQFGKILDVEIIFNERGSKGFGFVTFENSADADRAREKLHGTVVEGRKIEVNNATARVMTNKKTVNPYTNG
In words: fluorescence anisotropy. Background: Fluorescence polarisation rises when a labelled molecule tumbles more slowly, as on binding a larger partner.

The next data set deals with T2, Dazl(RRM) (Mus musculus, UniProt Q64368 32-117).
T2 sequence: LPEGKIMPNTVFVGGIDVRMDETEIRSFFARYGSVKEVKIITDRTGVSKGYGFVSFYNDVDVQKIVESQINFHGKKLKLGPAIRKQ
Put plainly: fluorescence anisotropy.

Consider UCCUGCAUGUUUA (ssRNA) [RbFox cognate RNA], for which the binding result in the data set with RbFox(RRM) is “binds”.

Take UUGUUCUUU (ssRNA) [Dazl cognate RNA]: the binding result with Dazl(RRM) is recorded as “binds”.
